Reference: PMC2691816 (Nucleic Acids Research, 2009)

Target: purified hXRCC1 protein (human, UniProt P18887 1-633)
Assay: far-Western, overlay or dot blot

Chain of purified hXRCC1 protein (P18887 whole entry): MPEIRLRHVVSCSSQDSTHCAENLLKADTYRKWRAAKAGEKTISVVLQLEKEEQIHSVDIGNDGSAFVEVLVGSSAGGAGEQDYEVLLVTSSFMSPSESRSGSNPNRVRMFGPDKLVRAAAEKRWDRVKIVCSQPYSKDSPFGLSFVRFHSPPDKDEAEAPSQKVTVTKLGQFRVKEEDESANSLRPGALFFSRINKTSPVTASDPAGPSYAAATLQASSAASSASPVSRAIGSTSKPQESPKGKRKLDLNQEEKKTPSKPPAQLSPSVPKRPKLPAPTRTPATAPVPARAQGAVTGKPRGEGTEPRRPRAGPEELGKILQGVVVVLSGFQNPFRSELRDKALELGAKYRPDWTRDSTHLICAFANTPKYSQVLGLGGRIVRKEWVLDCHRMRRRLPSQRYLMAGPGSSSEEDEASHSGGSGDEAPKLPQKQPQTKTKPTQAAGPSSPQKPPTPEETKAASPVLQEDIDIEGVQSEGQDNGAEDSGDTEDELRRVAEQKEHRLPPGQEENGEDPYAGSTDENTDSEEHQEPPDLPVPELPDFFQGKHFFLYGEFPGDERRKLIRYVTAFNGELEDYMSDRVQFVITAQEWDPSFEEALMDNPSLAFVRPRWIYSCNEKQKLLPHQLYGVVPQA

- binding result: binds
B1: His-tagged p58 N-terminal domain (amino acids 1–266) (domain or fragment, human, UniProt P49643 1-266, looked up)
chain: MEFSGRKWRKLRLAGDQRNASYPHCLQFYLQPPSENISLIEFENLAIDRVKLLKSVENLGVSYVKGTEQYQSKLESELRKLKFSYRENLEDEYEPRRRDHISHFILRLAYCQSEELRRWFIQQEMDLLRFRFSILPKDKIQDFLKDSQLQFEAISDEEKTLREQEIVASSPSLSGLKLGFESIYKIPFADALDLFRGRKVYLEDGFAYVPLKDIVAIILNEFRAKLSKALALTARSLPAVQSDERLQPLLNHLSHSYTGQDYSTQG
